± gives the uncertainty stated by the source.

The data set is described as follows: abundance fitness (aPCA) (normalised: wild type 0, dead -1); higher = more abundant; growth selection in yeast, the domain comes from the species named. Particulars: Homo sapiens.
As to “DnaJ homolog subfamily B member 1 G10C, P25685”, the abundance fitness was -0.587 ± 0.26. “DnaJ homolog subfamily B member 1 G10D, P25685”: the abundance fitness was -0.141 ± 0.074. As to “DnaJ homolog subfamily B member 1 G10E, P25685”, the abundance fitness was found to be 0.073 ± 0.2.

For “DnaJ homolog subfamily B member 1 G10F, P25685”, the abundance fitness is -0.542 ± 0.13. Next, “DnaJ homolog subfamily B member 1 G10H, P25685”: -0.378 ± 0.14; “DnaJ homolog subfamily B member 1 G10I, P25685”: -0.756 ± 0.19. Regarding “DnaJ homolog subfamily B member 1 G10K, P25685”, the abundance fitness was -0.108 ± 0.1.

“DnaJ homolog subfamily B member 1 G10L, P25685”: the abundance fitness is -0.223 ± 0.058.

Turning to “DnaJ homolog subfamily B member 1 G10M, P25685”, the abundance fitness was -0.191 ± 0.085. Next, “DnaJ homolog subfamily B member 1 G10N, P25685”: -0.333 ± 0.25; “DnaJ homolog subfamily B member 1 G10P, P25685”: -0.926 ± 0.21; “DnaJ homolog subfamily B member 1 G10Q, P25685”: -0.048 ± 0.083. Next, “DnaJ homolog subfamily B member 1 G10R, P25685”: -0.239 ± 0.066; “DnaJ homolog subfamily B member 1 G10S, P25685”: -0.163 ± 0.061; “DnaJ homolog subfamily B member 1 G10T, P25685”: -0.564 ± 0.16.

“DnaJ homolog subfamily B member 1 G10V, P25685” displayed an abundance fitness of -0.606 ± 0.087.

“DnaJ homolog subfamily B member 1 G10W, P25685” showed an abundance fitness of -0.704 ± 0.12. Next, “DnaJ homolog subfamily B member 1 G10Y, P25685”: -0.658 ± 0.12; “DnaJ homolog subfamily B member 1 G14A, P25685”: -0.353 ± 0.13; “DnaJ homolog subfamily B member 1 G14C, P25685”: -0.266 ± 0.12.

“DnaJ homolog subfamily B member 1 G14E, P25685” came in with an abundance fitness of -0.192 ± 0.078. Then “DnaJ homolog subfamily B member 1 G14F, P25685”, with -0.446 ± 0.2; and “DnaJ homolog subfamily B member 1 G14H, P25685”, with -0.133 ± 0.24; and “DnaJ homolog subfamily B member 1 G14I, P25685”, with -0.235 ± 0.12. “DnaJ homolog subfamily B member 1 G14K, P25685” returned an abundance fitness of -0.13 ± 0.093. Then “DnaJ homolog subfamily B member 1 G14L, P25685”, with -0.266 ± 0.074; and “DnaJ homolog subfamily B member 1 G14M, P25685”, with -0.385 ± 0.096. Next, “DnaJ homolog subfamily B member 1 G14N, P25685”: -0.232 ± 0.15. On to “DnaJ homolog subfamily B member 1 G14P, P25685”, for which the abundance fitness was -0.347 ± 0.12.

“DnaJ homolog subfamily B member 1 G14Q, P25685” came in with an abundance fitness of -0.251 ± 0.091. Then “DnaJ homolog subfamily B member 1 G14R, P25685”, with -0.274 ± 0.056; and “DnaJ homolog subfamily B member 1 G14S, P25685”, with -0.126 ± 0.042. The substance “DnaJ homolog subfamily B member 1 G14T, P25685” gave an abundance fitness of -0.072 ± 0.092. Next, “DnaJ homolog subfamily B member 1 G14V, P25685”: -0.241 ± 0.11; “DnaJ homolog subfamily B member 1 G14Y, P25685”: -0.378 ± 0.32. “DnaJ homolog subfamily B member 1 G40A, P25685”: the abundance fitness is -0.128 ± 0.1.

For the origin of these results see the Human Domainome abundance scans (Beltran et al. 2025).
